Assay results as given in the supplement of paper PMC9112550, “Optimization of the antimicrobial peptide Bac7 by deep mutational scanning” (BMC Biology, 2022).

Test system: Escherichia coli TOP10
Assay: shrunken log2 fold change of peptide-encoding DNA abundance (4.5 h post-induction vs induction); higher = less antimicrobial activity (less host growth inhibition)
Conditions: time post-induction: 4.5 h; library: site-saturation at positions 5, 18, 19, 20
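Further: peptides expressed intracellularly from a pBAD plasmid library in pooled LB shake-flask culture, induced with 0.3% L-arabinose, DNA abundance read by NGS, three biological replicates, DESeq2 with apeglm shrinkage.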

Sequence | shrunken log2 fold change
RRIRARPPRLPRPRPRPDCQPRP | 0.55
RRIRARPPRLPRPRPRPDCYPRP | 0.283
RRIRARPPRLPRPRPRPDDDPRP | 0.257
RRIRARPPRLPRPRPRPDEHPRP | 0.54
RRIRARPPRLPRPRPRPDEKPRP | 0.447
RRIRARPPRLPRPRPRPDFAPRP | 0.533
RRIRARPPRLPRPRPRPDFQPRP | 0.149
RRIRARPPRLPRPRPRPDFVPRP | 0.205
RRIRARPPRLPRPRPRPDGWPRP | 1.22
RRIRARPPRLPRPRPRPDHQPRP | -0.0683
RRIRARPPRLPRPRPRPDHRPRP | 0.0154
RRIRARPPRLPRPRPRPDHTPRP | -0.155
RRIRARPPRLPRPRPRPDHVPRP | 0.0166
RRIRARPPRLPRPRPRPDITPRP | 0.491
RRIRARPPRLPRPRPRPDKHPRP | -0.0889
RRIRARPPRLPRPRPRPDNEPRP | 0.301
RRIRARPPRLPRPRPRPDNIPRP | -0.256
RRIRARPPRLPRPRPRPDNPPRP | 0.0396
RRIRARPPRLPRPRPRPDNSPRP | -0.269
RRIRARPPRLPRPRPRPDPEPRP | 0.939
RRIRARPPRLPRPRPRPDPMPRP | 1.02
RRIRARPPRLPRPRPRPDSIPRP | -0.0582
RRIRARPPRLPRPRPRPDVRPRP | 0.0106
RRIRARPPRLPRPRPRPDYMPRP | -0.0383
RRIRARPPRLPRPRPRPEACPRP | 1.24
RRIRARPPRLPRPRPRPEATPRP | 1.65
RRIRARPPRLPRPRPRPECYPRP | 0.361
RRIRARPPRLPRPRPRPEDKPRP | 1.89

Sequence | shrunken log2 fold change
RRIRARPPRLPRPRPRPEEFPRP | 0.00844
RRIRARPPRLPRPRPRPEFGPRP | 0.874
RRIRARPPRLPRPRPRPEFSPRP | 1.27
RRIRARPPRLPRPRPRPEFYPRP | 0.329
RRIRARPPRLPRPRPRPEHIPRP | -0.185
RRIRARPPRLPRPRPRPEIKPRP | 1.77
RRIRARPPRLPRPRPRPEITPRP | 0.784
RRIRARPPRLPRPRPRPEIYPRP | -0.0195
RRIRARPPRLPRPRPRPEKQPRP | -0.148
RRIRARPPRLPRPRPRPELEPRP | 1.88
RRIRARPPRLPRPRPRPELGPRP | 1.43
RRIRARPPRLPRPRPRPEMSPRP | 0.116
RRIRARPPRLPRPRPRPEMTPRP | 1.23
RRIRARPPRLPRPRPRPENEPRP | 0.868
RRIRARPPRLPRPRPRPEPFPRP | 0.0204
RRIRARPPRLPRPRPRPEQFPRP | 0.218
RRIRARPPRLPRPRPRPERNPRP | 0.848
RRIRARPPRLPRPRPRPERYPRP | 0.0113
RRIRARPPRLPRPRPRPETEPRP | 1.39
RRIRARPPRLPRPRPRPETKPRP | 1.27
RRIRARPPRLPRPRPRPETNPRP | 1.01
RRIRARPPRLPRPRPRPEWEPRP | 0.877
RRIRARPPRLPRPRPRPEYHPRP | 0.0454
RRIRARPPRLPRPRPRPEYNPRP | 0.102
RRIRARPPRLPRPRPRPEYWPRP | 0.515
RRIRARPPRLPRPRPRPFAEPRP | 0.762
RRIRARPPRLPRPRPRPFCHPRP | -0.083
